Several values for one entry are separate records, joined by “and”; a condition that tells them apart may be missing. Equal values may be shown once.

For the data set the following is noted: whole UniProt chain shown.
Where [1] appears, read: Thermus thermophilus (strain ATCC 27634 / DSM 579 / HB8), pH 5.5, 25 °C, Urea, CD, NaOAc 20 mM, KCl 50 mM, reversible: yes.
Where [2] appears, read: Thermus thermophilus (strain ATCC 27634 / DSM 579 / HB8), pH 5.5, Thermal, CD, Sodium acetate 5 mM, KCl 50 mM, reversible: yes.
Setting [3] is: Staphylococcus aureus, pH 7, Thermal, CD, NaPP 0.1 M, reversible: yes.
The mark [4] stands for this setting: Staphylococcus aureus, pH 7, Thermal, Fluorescence, NaPP 0.1 M, reversible: yes.
The mark [5] stands for this setting: Thermotoga maritima (strain ATCC 43589 / DSM 3109 / JCM 10099 / NBRC 100826 / MSB8), pH 7.4, 25 °C, GdnHCl, CD, sodium phosphate, transition: 2, reversible: yes.
The mark [6] stands for this setting: Sulfolobus acidocaldarius (strain ATCC 33909 / DSM 639 / JCM 8929 / NBRC 15157 / NCIMB 11770), pH 7, Thermal, DSC, Acetate 10 mM, reversible: Yes.
[7] abbreviates: Sulfolobus acidocaldarius (strain ATCC 33909 / DSM 639 / JCM 8929 / NBRC 15157 / NCIMB 11770), pH 7, Thermal, DSC, Unknown, reversible: yes.
Setting [8] is: Thermus thermophilus, pH 7, Thermal, Fluorescence, potassium phosphate 50 mM, DTT 1 mM, reversible: yes.

B1: Ribonuclease H wild type, P29253 (protein)
chain: MNPSPRKRVALFTDGACLGNPGPGGWAALLRFHAHEKLLSGGEACTTNNRMELKAAIEGLKALKEPCEVDLYTDSHYLKKAFTEGWLEGWRKRGWRTAEGKPVKNRDLWEALLLAMAPHRVRFHFVKGHTGHPENERVDREARRQAQSQAKTPCPPRAPTLFHEEA
Consider B1, for which, under setting [1], the denaturant m value turned out to be 2 kcal/mol/M and the unfolding free energy came to 12.8 kcal/mol. For the same protein, under setting [2], the Tm was found to be 86 °C, the “heat capacity change of unfolding” value worked out at 1.8 kcal/mol/K and the “unfolding enthalpy (van 't Hoff)” value was found to be 131 kcal/mol.

B2: Dihydroneopterin aldolase wild type, P56740 (protein)
chain: MQDTIFLKGMRFYGYHGALSAENEIGQIFKVDVTLKVDLSEAGRTDNVIDTVHYGEVFEEVKSIMEGKAVNLLEHLAERIANRINSQYNRVMETKVRITKENPPIPGHYDGVGIEIVRENK
For the protein B2, the Tm worked out at 42.5 °C under setting [3] and 43.5 °C under setting [4]. Besides, the “unfolding enthalpy (van 't Hoff)” value under setting [3] turned out to be 141 kcal/mol and the “unfolding enthalpy (van 't Hoff)” value under setting [4] amounted to 151 kcal/mol.

B3: wild type, Q9WZ62 (protein)
chain: MKKLLAVSILLVSIVIFSGAIDEIKSRGYLLVGLSADFPPFEFVDENGNIVGFDVDLAKEIARRLGVELKIVDMTFDGLIPSLLTKKIDVIISGMTITEERKKVVAFSDPYFDAGQVIVVRKDSDFRPKTYEDLVGKTVAVQIGTTGDIEVSKYDGIKVVRFDKFTDAFLELKRGRADAVVLDSATARAFVAKNPDLVISSGVLSSEQYGIAVRKEDTDLLEFINSVLRELKKSPYDVLIEKWFSE
B3: under setting [5], the denaturant m value is 2.63 kcal/mol/M and 2.86 kcal/mol/M; the “denaturant midpoint (higher = more stable)” value is 5 M and 4.5 M; the unfolding free energy is 12.9 kcal/mol and 13.1 kcal/mol.

B4: DNA-binding protein 7d wild type, P13123 (protein)
chain: MVKVKFKYKGEEKEVDTSKIKKVWRVGKMVSFTYDDNGKTGRGAVSEKDAPKELLDMLARAEREKK
Take B4: the Tm by setting is: (Sulfolobus acidocaldarius (strain ATCC 33909 / DSM 639 / JCM 8929 / NBRC 15157 / NCIMB 11770), pH 4, Thermal, DSC, Potassium acetate 0.05 M, KCl 0.3 M, reversible: yes) 86.8 °C; (Sulfolobus acidocaldarius (strain ATCC 33909 / DSM 639 / JCM 8929 / NBRC 15157 / NCIMB 11770), pH 6, Thermal, DSC, KH2PO4 0.01 M, KCl 0.1 M, reversible: yes) 99.4 °C; under setting [6], 90.7 °C; under setting [7], 90.7 °C. In addition, the “heat capacity change of unfolding” value is, setting by setting: under setting [6], 0.71 kcal/mol/K; under setting [7], 0.71 kcal/mol/K. The “unfolding enthalpy (calorimetric)” value reads like this: under setting [6], 58.5 kcal/mol; under setting [7], 58.5 kcal/mol.

B5: Subtilisin inhibitor wild type, P01006 (protein)
chain: MRNTGAGPSPSVSRPPPSAAPLSGAALAAPGDAPSALYAPSALVLTVGKGVSATTAAPERAVTLTCAPGPSGTHPAAGSACADLAAVGGDLNALTRGEDVMCPMVYDPVLLTVDGVWQGKRVSYERVFSNECEMNAHGSSVFAF
Consider B5, for which the Tm is 21.6 °C (Streptomyces albogriseolus, pH 2.45, Thermal, CD, glycine 25 mM, reversible: yes); 31.6 °C (Streptomyces albogriseolus, pH 2.72, Thermal, CD, glycine 25 mM, reversible: yes); 35.7 °C (Streptomyces albogriseolus, pH 2.87, Thermal, CD, glycine 25 mM, reversible: yes); 45.8 °C (Streptomyces albogriseolus, pH 3.21, Thermal, CD, glycine 25 mM, reversible: yes). Also, the unfolding free energy (Streptomyces albogriseolus, pH 3.21, 20 °C, Thermal, CD, glycine 25 mM, reversible: yes) was determined as 4.07 kcal/mol.

B6: 3-isopropylmalate dehydrogenase wild type, P61495 (protein)
chain: MKVAVLPGDGIGPEVTEAALKVLRALDEAEGLGLAYEVFPFGGAAIDAFGEPFPEPTRKGVEEAEAVLLGSVGGPKWDGLPRKISPETGLLSLRKSQDLFANLRPAKVFPGLERLSPLKEEIARGVDVLIVRELTGGIYFGEPRGMSEAEAWNTERYSKPEVERVARVAFEAARKRRKHVVSVDKANVLEVGEFWRKTVEEVGRGYPDVALEHQYVDAAAMHLVRSPARFDVVVTGNIFGDILSDLASVLPGSLGLLPSASLGRGTPVFEPVHGSAPDIAGKGIANPTAAILSAAMMLEHAFGLVELARKVEDAVAKALLETPPPDLGGSAGTEAFTATVLRHLA
On to B6, for which the denaturant m value (Thermus thermophilus, pH 7, 27 °C, Urea, Fluorescence, Potassium phosphate 50 mM, transition: 3, reversible: yes) is 1.2 kcal/mol/M and 1.41 kcal/mol/M. The melting temperature (Tm) runs as follows: (Thermus thermophilus, pH 7, Thermal, CD, phosphate 20 mM) 87 °C; (Thermus thermophilus, pH 7, Thermal, CD, sodium phosphate, ammonium sulfate 1.0-1.5 M) 87 °C; under setting [8], 30.9 °C; (Thermus thermophilus, pH 7.6, Thermal, Activity, potassium phosphate 20 mM, reversible: No) 84.7 °C; (Thermus thermophilus, pH 7.6, Thermal, CD, phosphate 20 mM, reversible: No) 87.4 °C; (Thermus thermophilus, pH 10.4, Thermal, CD, NaHCO3 20 mM) 87 °C. The “heat capacity change of unfolding” value under setting [8] was 1.73 kcal/mol/K. Moreover, the “unfolding enthalpy (van 't Hoff)” value under setting [8] was determined as 15.8 kcal/mol.

As usually defined, the Tm is the temperature at the midpoint of the melting transition.

(Values after FireProtDB.)
